# Data published in IntAct's records for PubMed 9418861.
# B1: Serine/threonine-protein kinase MRCK alpha (Homo sapiens), Q5VT25 (parent)
# chain: MSGEVRLRQLEQFILDGPAQTNGQCFSVETLLDILICLYDECNNSPLRREKNILEYLEWAKPFTSKVKQMRLHREDFEILKVIGRGAFGEVAVVKLKNADKVFAMKILNKWEMLKRAETACFREERDVLVNGDNKWITTLHYAFQDDNNLYLVMDYYVGGDLLTLLSKFEDRLPEDMARFYLAEMVIAIDSVHQLHYVHRDIKPDNILMDMNGHIRLADFGSCLKLMEDGTVQSSVAVGTPDYISPEILQAMEDGKGRYGPECDWWSLGVCMYEMLYGETPFYAESLVETYGKIMNHKERFQFPAQVTDVSENAKDLIRRLICSREHRLGQNGIEDFKKHPFFSGIDWDNIRNCEAPYIPEVSSPTDTSNFDVDDDCLKNSETMPPPTHTAFSGHHLPFVGFTYTSSCVLSDRSCLRVTAGPTSLDLDVNVQRTLDNNLATEAYERRIKRLEQEKLELSRKLQESTQTVQALQYSTVDGPLTASKDLEIKNLKEEIEKLRKQVTESSHLEQQLEEANAVRQELDDAFRQIKAYEKQIKTLQQEREDLNKELVQASERLKNQSKELKDAHCQRKLAMQEFMEINERLTELHTQKQKLARHVRDKEEEVDLVMQKVESLRQELRRTERAKKELEVHTEALAAEASKDRKLREQSEHYSKQLENELEGLKQKQISYSPGVCSIEHQQEITKLKTDLEKKSIFYEEELSKREGIHANEIKNLKKELHDSEGQQLALNKEIMILKDKLEKTRRESQSEREEFESEFKQQYEREKVLLTEENKKLTSELDKLTTLYENLSIHNQQLEEEVKDLADKKESVAHWEAQITEIIQWVSDEKDARGYLQALASKMTEELEALRNSSLGTRATDMPWKMRRFAKLDMSARLELQSALDAEIRAKQAIQEELNKVKASNIITECKLKDSEKKNLELLSEIEQLIKDTEELRSEKGIEHQDSQHSFLAFLNTPTDALDQFERSPSCTPASKGRRTVDSTPLSVHTPTLRKKGCPGSTGFPPKRKTHQFFVKSFTTPTKCHQCTSLMVGLIRQGCSCEVCGFSCHITCVNKAPTTCPVPPEQTKGPLGIDPQKGIGTAYEGHVRIPKPAGVKKGWQRALAIVCDFKLFLYDIAEGKASQPSVVISQVIDMRDEEFSVSSVLASDVIHASRKDIPCIFRVTASQLSASNNKCSILMLADTENEKNKWVGVLSELHKILKKNKFRDRSVYVPKEAYDSTLPLIKTTQAAAIIDHERIALGNEEGLFVVHVTKDEIIRVGDNKKIHQIELIPNDQLVAVISGRNRHVRLFPMSALDGRETDFYKLSETKGCQTVTSGKVRHGALTCLCVAMKRQVLCYELFQSKTRHRKFKEIQVPYNVQWMAIFSEQLCVGFQSGFLRYPLNGEGNPYSMLHSNDHTLSFIAHQPMDAICAVEISSKEYLLCFNSIGIYTDCQGRRSRQQELMWPANPSSCCYNAPYLSVYSENAVDIFDVNSMEWIQTLPLKKVRPLNNEGSLNLLGLETIRLIYFKNKMAEGDELVVPETSDNSRKQMVRNINNKRRYSFRVPEEERMQQRREMLRDPEMRNKLISNPTNFNHIAHMGPGDGIQILKDLPMNPRPQESRTVFSGSVSIPSITKSRPEPGRSMSASSGLSARSSAQNGSALKREFSGGSYSAKRQPMPSPSEGSLSSGGMDQGSDAPARDFDGEDSDSPRHSTASNSSNLSSPPSPASPRKTKSLSLESTDRGSWDP
# Variants of: B1
# Conditions: with cdc42_human CDC42, P60953
# Chain of cdc42_human CDC42, P60953 (P60953 whole entry, looked up): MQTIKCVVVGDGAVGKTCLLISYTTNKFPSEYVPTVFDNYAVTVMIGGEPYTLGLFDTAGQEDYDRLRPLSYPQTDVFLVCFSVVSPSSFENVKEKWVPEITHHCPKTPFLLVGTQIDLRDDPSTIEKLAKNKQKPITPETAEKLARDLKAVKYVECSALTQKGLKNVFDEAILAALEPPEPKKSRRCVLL
row,effect of a mutation on the interaction,Variant
1,decreasing interaction,H1579A
2,decreasing interaction,H1582A
